Assay results taken from PMC12748766, “Structural basis for human chondroitin sulfate chain polymerization” (Nature Communications, 2025).

Experiments:
Assay in all cases: mass photometry; Refeyn OneMP; purified complexes diluted in 20 mM MES pH 6.5, 150 mM NaCl to around 25 nM
Settings in all cases: both partners purified
[1] = molecular target: T1, Chondroitin Sulfate Synthase-1 (CHSY1), secreted N-terminally truncated construct aa68-aa802 (human, UniProt Q86X52 68-802)
T1 construct: CHSY1, human, UniProt Q86X52, residues 68-802 (membrane-spanning helix removed); Construct in pHR-CMV-TetO2 with an N-terminal chicken RPTP sigma signal peptide, SUMO, 6x His and a 3C site; no cleavage site before the C-terminal Avi tag; source: Freestyle 293-F cells, co-transfected, secreted; purified from the supernatant (HisTrap, 3C protease, second HisTrap); not shown: SUMO, N-terminal, …
T1 sequence (looked up): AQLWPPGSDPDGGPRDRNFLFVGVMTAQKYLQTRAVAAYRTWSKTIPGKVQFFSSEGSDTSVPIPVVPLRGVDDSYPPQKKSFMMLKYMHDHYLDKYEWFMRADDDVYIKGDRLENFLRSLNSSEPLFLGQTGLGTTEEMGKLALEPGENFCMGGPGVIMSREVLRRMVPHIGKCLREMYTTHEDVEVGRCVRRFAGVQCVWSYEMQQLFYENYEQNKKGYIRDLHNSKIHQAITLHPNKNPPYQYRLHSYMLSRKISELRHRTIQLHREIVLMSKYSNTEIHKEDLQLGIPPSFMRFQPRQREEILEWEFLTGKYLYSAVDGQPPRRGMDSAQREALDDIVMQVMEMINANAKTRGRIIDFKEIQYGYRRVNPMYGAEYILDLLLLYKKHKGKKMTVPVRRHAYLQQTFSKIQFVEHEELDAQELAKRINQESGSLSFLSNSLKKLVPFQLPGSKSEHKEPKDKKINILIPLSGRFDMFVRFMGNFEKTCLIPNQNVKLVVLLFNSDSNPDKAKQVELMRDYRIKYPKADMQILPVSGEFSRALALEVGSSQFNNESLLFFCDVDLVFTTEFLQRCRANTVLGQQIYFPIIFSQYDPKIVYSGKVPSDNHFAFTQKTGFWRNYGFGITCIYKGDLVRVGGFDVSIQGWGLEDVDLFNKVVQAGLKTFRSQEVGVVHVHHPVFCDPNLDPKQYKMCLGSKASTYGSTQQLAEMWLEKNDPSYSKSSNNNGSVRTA

[2] = molecular target: T2, CHSY3^D261N/D263N, secreted construct aa157-aa882 (human, UniProt Q70JA7 157-882, D261N | D263N)
T2 construct: CHSY3, human, UniProt Q70JA7, residues 157-882, mutations in the DxD motif of the N-terminal GT domain; source: Freestyle 293-F cells, co-transfected with CHPF, secreted; purified by the same protocol as the wild-type complexes; not shown: SUMO, N-terminal, cleaved; His6, N-terminal, cleaved
T2 sequence (looked up): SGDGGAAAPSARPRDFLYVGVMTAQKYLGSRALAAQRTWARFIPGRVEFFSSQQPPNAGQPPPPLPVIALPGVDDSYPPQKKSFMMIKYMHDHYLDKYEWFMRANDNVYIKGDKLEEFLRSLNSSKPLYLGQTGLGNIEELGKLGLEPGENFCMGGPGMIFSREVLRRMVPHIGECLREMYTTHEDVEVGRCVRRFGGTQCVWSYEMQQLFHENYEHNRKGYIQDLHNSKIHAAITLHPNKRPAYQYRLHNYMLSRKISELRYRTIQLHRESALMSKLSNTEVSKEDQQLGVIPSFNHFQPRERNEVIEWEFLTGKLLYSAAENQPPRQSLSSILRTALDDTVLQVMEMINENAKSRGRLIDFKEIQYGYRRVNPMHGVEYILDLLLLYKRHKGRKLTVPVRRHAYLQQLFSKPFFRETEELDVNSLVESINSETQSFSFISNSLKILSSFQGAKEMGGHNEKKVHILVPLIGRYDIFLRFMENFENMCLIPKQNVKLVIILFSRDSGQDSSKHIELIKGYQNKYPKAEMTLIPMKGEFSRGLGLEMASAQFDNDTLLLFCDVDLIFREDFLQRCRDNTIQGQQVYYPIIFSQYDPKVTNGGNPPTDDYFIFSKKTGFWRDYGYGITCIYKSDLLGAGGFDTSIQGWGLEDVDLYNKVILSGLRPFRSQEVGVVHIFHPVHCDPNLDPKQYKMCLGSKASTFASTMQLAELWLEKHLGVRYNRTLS

[3] = molecular target: T3, CHSY3^D718N/D720N, secreted construct aa157-aa882 (human, UniProt Q70JA7 157-882, D718N | D720N)
T3 construct: CHSY3, human, UniProt Q70JA7, residues 157-882, mutations in the DxD motif of the C-terminal GT domain; source: Freestyle 293-F cells, co-transfected with CHPF, secreted; purified by the same protocol as the wild-type complexes; not shown: SUMO, N-terminal, cleaved; His6, N-terminal, cleaved
T3 sequence (looked up): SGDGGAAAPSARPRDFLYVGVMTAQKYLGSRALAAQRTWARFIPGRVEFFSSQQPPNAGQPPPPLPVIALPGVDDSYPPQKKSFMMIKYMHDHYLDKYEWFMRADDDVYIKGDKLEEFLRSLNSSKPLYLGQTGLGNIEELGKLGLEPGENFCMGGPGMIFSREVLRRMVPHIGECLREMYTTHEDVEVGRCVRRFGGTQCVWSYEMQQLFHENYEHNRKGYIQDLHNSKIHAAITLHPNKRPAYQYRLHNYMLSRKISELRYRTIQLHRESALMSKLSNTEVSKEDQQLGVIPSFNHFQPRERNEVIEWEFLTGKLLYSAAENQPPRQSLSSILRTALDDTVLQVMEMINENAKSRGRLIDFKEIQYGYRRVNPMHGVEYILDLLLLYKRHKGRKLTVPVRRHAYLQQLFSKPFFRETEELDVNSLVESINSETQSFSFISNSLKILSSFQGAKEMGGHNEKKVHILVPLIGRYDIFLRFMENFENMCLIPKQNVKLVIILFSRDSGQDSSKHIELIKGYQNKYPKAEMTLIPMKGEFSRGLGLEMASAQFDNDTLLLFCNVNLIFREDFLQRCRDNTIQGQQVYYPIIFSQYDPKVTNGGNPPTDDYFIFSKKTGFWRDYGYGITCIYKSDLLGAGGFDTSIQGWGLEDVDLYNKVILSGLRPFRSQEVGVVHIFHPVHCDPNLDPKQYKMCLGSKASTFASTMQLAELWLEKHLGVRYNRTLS

Measured: binding result

B1: Chondroitin Polymerizing Factor (CHPF), secreted N-terminally truncated construct aa81-aa775 (domain or fragment, human, UniProt Q8IZ52 81-775, looked up)
chain: GENWEPRVLPYHPAQPGQAAKKAVRTRYISTELGIRQRLLVAVLTSQTTLPTLGVAVNRTLGHRLERVVFLTGARGRRAPPGMAVVTLGEERPIGHLHLALRHLLEQHGDDFDWFFLVPDTTYTEAHGLARLTGHLSLASAAHLYLGRPQDFIGGEPTPGRYCHGGFGVLLSRMLLQQLRPHLEGCRNDIVSARPDEWLGRCILDATGVGCTGDHEGVHYSHLELSPGEPVQEGDPHFRSALTAHPVRDPVHMYQLHKAFARAELERTYQEIQELQWEIQNTSHLAVDGDQAAAWPVGIPAPSRPASRFEVLRWDYFTEQHAFSCADGSPRCPLRGADRADVADVLGTALEELNRRYHPALRLQKQQLVNGYRRFDPARGMEYTLDLQLEALTPQGGRRPLTRRVQLLRPLSRVEILPVPYVTEASRLTVLLPLAAAERDLAPGFLEAFATAALEPGDAAAALTLLLLYEPRQAQRVAHADVFAPVKAHVAELERRFPGARVPWLSVQTAAPSPLRLMDLLSKKHPLDTLFLLAGPDTVLTPDFLNRCRMHAISGWQAFFPMHFQAFHPAVAPPQGPGPPELGRDTGRFDRQAASEACFYNSDYVAARGRLAAASEQEEELLESLDVYELFLHFSSLHVLRAVEPALLQRYRAQTCSARLSEDLYHRCLQSVLEGLGSRTQLAMLLFEQEQGNST
notes: CHPF, human, UniProt Q8IZ52, residues 81-775 (membrane-spanning helix removed); Construct in pHR-CMV-TetO2 with an N-terminal chicken RPTP sigma signal peptide, SUMO, 6x His and a 3C site; a second 3C site stands before the C-terminal twin streptavidin tag; also called Chondroitin sulfate synthase 2; source: Freestyle 293-F cells, co-transfected, secreted; purified from the supernatant (HisTrap, …)
binds: all assays above
